For this assay, the target named is catalytic subunit of DNA polymerase ε (POLE), endogenous (human (endogenous in Jurkat and in …, UniProt Q07864 1-2286)). Nature of the assay: nHU, apparent Kd.
catalytic subunit of DNA polymerase ε (POLE), endogenous (human, sequence (Q07864 whole entry): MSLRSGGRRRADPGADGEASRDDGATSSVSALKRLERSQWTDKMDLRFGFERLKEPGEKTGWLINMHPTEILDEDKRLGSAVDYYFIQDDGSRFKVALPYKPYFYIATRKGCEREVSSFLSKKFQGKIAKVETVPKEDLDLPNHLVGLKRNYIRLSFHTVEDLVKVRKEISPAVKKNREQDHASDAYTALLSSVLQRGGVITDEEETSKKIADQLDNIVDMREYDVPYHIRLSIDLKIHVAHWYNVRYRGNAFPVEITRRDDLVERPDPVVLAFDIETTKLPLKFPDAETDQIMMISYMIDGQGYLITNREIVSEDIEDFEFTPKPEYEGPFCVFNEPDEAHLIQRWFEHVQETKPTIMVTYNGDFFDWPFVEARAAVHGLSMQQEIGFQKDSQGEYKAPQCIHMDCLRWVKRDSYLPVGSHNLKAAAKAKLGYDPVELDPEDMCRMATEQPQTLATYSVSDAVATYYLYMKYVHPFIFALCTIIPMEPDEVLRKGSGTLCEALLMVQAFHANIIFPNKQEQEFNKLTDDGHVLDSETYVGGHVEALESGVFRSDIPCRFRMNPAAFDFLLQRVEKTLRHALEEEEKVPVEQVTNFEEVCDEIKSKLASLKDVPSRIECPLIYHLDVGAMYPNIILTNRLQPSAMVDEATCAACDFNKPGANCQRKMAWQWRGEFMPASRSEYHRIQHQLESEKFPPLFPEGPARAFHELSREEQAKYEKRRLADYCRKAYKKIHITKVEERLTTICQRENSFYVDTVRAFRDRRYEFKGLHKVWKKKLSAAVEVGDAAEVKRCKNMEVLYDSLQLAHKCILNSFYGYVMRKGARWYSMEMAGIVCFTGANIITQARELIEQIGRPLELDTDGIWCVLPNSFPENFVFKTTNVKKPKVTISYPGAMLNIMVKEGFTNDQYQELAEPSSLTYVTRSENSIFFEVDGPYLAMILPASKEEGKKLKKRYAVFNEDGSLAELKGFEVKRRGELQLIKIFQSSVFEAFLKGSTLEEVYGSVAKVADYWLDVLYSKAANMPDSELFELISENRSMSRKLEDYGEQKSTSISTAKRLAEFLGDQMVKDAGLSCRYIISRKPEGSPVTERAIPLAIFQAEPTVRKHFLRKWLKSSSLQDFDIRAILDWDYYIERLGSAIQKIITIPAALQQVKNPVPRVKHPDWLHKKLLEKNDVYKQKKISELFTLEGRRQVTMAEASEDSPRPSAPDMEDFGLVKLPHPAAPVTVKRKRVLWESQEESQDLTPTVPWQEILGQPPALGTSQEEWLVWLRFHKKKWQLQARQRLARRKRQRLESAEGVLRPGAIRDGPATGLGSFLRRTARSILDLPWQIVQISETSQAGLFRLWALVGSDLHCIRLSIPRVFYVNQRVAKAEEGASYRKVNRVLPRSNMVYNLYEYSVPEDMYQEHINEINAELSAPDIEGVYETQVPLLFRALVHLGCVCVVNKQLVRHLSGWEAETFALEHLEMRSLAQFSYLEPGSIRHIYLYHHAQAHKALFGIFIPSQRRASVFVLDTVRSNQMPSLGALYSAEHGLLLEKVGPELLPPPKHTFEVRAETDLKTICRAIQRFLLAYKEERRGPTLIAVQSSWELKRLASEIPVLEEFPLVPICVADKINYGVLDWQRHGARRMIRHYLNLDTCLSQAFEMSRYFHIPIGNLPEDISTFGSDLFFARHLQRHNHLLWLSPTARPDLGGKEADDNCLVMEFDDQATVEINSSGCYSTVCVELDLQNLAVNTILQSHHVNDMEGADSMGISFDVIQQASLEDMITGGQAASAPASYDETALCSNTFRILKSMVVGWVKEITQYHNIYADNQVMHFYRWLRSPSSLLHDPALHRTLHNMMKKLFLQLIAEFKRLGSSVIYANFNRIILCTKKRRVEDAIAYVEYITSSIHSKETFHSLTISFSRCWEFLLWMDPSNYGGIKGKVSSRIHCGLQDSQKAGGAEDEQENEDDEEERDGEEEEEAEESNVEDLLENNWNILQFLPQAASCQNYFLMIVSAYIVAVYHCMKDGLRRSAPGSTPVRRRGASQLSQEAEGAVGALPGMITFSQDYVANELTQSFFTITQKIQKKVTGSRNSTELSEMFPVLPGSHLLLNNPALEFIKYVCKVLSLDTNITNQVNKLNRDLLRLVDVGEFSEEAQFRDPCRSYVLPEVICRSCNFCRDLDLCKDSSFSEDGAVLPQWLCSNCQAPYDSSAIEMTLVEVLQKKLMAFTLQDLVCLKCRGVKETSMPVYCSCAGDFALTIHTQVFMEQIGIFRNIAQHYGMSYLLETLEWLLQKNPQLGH

B1: NPF motif peptide of POLA1 (residues 177-206) (peptide)
peptide: PVMILKKKRSIGASPNPFSVHTATAVPSGK
HELM: PEPTIDE1{[O=C1N[C@H]2[C@H](CS[C@H]2CCCCC(=O)[*:2])N1].[O=C(CCCCCN[*:1])[*:2]].P.V.M.I.L.K.K.K.R.S.I.G.A.S.P.N.P.F.S.V.H.T.A.T.A.V.P.S.G.K.[am]}$$$$V2.0
SMILES: CC[C@H](C)[C@H](NC(=O)[C@H](CO)NC(=O)[C@H](CCCNC(=N)N)NC(=O)[C@H](CCCCN)NC(=O)[C@H](CCCCN)NC(=O)[C@H](CCCCN)NC(=O)[C@H](CC(C)C)NC(=O)[C@@H](NC(=O)[C@H](CCSC)NC(=O)[C@@H](NC(=O)[C@@H]1CCCN1C(=O)CCCCCNC(=O)CCCC[C@@H]1SC[C@@H]2NC(=O)N[C@@H]21)C(C)C)[C@@H](C)CC)C(=O)NCC(=O)N[C@@H](C)C(=O)N[C@@H](CO)C(=O)N1CCC[C@H]1C(=O)N[C@@H](CC(N)=O)C(=O)N1CCC[C@H]1C(=O)N[C@@H](Cc1ccccc1)C(=O)N[C@@H](CO)C(=O)N[C@H](C(=O)N[C@@H](Cc1c[nH]cn1)C(=O)N[C@H](C(=O)N[C@@H](C)C(=O)N[C@H](C(=O)N[C@@H](C)C(=O)N[C@H](C(=O)N1CCC[C@H]1C(=O)N[C@@H](CO)C(=O)NCC(=O)N[C@@H](CCCCN)C(N)=O)C(C)C)[C@@H](C)O)[C@@H](C)O)C(C)C
B1: the Kd was found to be 2500 nM.

The record behind these values is article PMC12808100 (2025).
